The record followed here is patent publication US10030233B2, “Modified P450 reductase with N-terminal deletions and endoplasmic reticulum retention tag” (DE MONTFORT UNIVERSITY, priority 2013, dated 2018).

Common to all, as to format: biochemical
Series [1] can be described thus: MTT-based cytochrome P450 reductase assay on yeast microsomes. The note with it: relative to hRD = 1; 100 μg yeast microsomes, A610. The source says: The enzyme NADPH-cytochrome P450 reductase mediates the transfer of electrons from NADPH to cytochrome P450, other microsomal proteins and cytochrome c. It also catalyses the reduction of many drugs and other compounds such as potassium ferricyanide, 2,6-dichloroindopheonl, 1,1-diphenyl-2-picrylhydrazyl (DPPH), and mitomycin c. Tetrazolium salts are used extensively in cell proliferation and cytotoxicity assays, enzyme assays, histochemical procedures and bacteriological screening. […] The compound 3-(4,5-dimethylthiazol-2-yl)-2,5-diphenyltetrazolium bromide (MTT) is a monotetrazolium salt. The reduction of MTT is one of the most frequently used methods for measuring cell proliferation and cytotoxicity. Reduction of MTT by P450 reductase has been assessed as a method for monitoring yeast produced recombinant P450 reductase activity and the protocol was developed on the procedure published by Yim S-K, et al (Yim S-K., Y. C.-H. Ahn T., Hung H-C and Pan J-G. A continuous Spectrophotometric assay for NADPH-cytochrome P450 reductase activity using 3-(4,5 Dimethylthiazol-2-yl)-2,5-diphenyltetrazolium Bromide. Journal of Biology and Molecular Biology 38: 366-369, 2005). The principal advantage of this substance is that the reduction of MTT can be assayed directly in the reaction medium by a continuous spectrophotometirc method. The electrons released from NADPH by P450 reductase are transferred to MTT, and then the amounts of reduced MTT is assessed spectrophotometrically by measuring the increase in A610 values that is due to the formation of blue formazan. The extinction coefficient of MTT is 11.3 mM^−1 cm^−1. This method offers the advantages of short analysis time with the use of a relatively cheap commercial substrate. The classical assay uses recombinant cytochrome c as a substrate. […]
Disposable cuvettes were used for this experiment. […] The cuvette was quickly placed into the spectrophotometer together with the blank cuvette and its contents (that contained all components as in the other test cuvette but not the microsomes or cell supernatant) and the increase in the values at 610 nm was measured for a time period of 400 seconds. The electrons released from NADPH by recombinant P450 reductase enzyme were transferred to MTT, and the ability to reduce MTT was assessed spectrophotometrically by measuring the increase in A610 values as a result of the formation of blue formazan. The rate of MTT reduction was calculated from the change in A610 values using an extinction coefficient of 11.3 mM^−1 cm^−1 and the formula, ΔA610/min/11.3*0.1 mg/ml=μmole reduced MTT/min/mg of protein.

The target in the next series is T1, CYP2D6 (Homo sapiens, UniProt P10635, V374M).
T1 construct: A 1506 bp BamHI-XbaI fragment containing the human CYP2D6 gene; made in house; host or cells: Saccharomyces cerevisiae W303B, microsomes

A further series deals with T2, CYP1A2 (Homo sapiens, UniProt P05177).
T2 construct: A 1563 bp BamHI-XhoI fragment containing the human CYP1A2 gene; made in house; host or cells: Saccharomyces cerevisiae W303B, microsomes
T2 sequence (P05177 1-516): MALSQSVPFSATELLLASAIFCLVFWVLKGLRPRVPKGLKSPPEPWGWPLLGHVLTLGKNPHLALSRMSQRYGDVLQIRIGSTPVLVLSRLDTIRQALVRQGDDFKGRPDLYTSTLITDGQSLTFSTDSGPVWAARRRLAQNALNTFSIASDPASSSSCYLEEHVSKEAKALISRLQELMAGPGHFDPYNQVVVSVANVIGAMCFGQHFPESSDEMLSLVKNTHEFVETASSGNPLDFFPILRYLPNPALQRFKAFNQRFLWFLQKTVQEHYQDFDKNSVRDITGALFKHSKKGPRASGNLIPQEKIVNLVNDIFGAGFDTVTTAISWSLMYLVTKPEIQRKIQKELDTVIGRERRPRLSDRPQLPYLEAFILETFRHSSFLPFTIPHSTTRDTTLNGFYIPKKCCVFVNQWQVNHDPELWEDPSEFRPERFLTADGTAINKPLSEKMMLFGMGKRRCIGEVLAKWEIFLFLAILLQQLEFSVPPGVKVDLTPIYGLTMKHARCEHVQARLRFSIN

T1 sequence (P10635 whole entry V374M, the tested form may be a part): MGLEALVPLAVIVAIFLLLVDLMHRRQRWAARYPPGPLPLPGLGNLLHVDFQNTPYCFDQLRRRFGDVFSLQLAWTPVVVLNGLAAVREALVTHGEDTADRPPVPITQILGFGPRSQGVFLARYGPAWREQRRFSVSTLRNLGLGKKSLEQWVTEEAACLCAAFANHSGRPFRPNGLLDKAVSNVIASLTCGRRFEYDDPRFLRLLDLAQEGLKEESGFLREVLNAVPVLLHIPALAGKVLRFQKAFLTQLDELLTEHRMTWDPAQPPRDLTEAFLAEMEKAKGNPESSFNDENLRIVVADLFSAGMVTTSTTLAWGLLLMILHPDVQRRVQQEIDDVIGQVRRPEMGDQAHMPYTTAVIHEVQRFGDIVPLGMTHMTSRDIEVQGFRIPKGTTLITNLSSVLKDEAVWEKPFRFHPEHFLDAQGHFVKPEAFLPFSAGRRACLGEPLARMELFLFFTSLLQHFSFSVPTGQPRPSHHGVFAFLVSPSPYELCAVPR

B1: hRD: wild-type human P450 reductase, full length, control (protein, listed as Homo sapiens)
chain: MGDSHVDTSSTVSEAVAEEVSLFSMTDMILFSLIVGLLTYWFLFRKKKEEVPEFTKIQTLTSSVRESSFVEKMKKTGRNIIVFYGSQTGTAEEFANRLSKDAHRYGMRGMSADPEEYDLADLSSLPEIDNALVVFCMATYGEGDPTDNAQDFYDWLQETDVDLSGVKFAVFGLGNKTYEHFNAMGKYVDKRLEQLGAQRIFELGLGDDDGNLEEDFITWREQFWPAVCEHFGVEATGEESSIRQYELVVHTDIDAAKVYMGEMGRLKSYENQKPPFDAKNPFLAAVTTNRKLNQGTERHLMHLELDISDSKIRYESGDHVAVYPANDSALVNQLGKILGADLDVVMSLNNLDEESNKKHPFPCPTSYRTALTYYLDITNPPRTNVLYELAQYASEPSEQELLRKMASSSGEGKELYLSWVVEARRHILAILQDCPSLRPPIDHLCELLPRLQARYYSIASSSKVHPNSVHICAVVVEYETKAGRINKGVATNWLRAKEPAGENGGRALVPMFVRKSQFRLPFKATTPVIMVGPGTGVAPFIGFIQERAWLRQQGKEVGETLLYYGCRRSDEDYLYREELAQFHRDGALTQLNVAFSREQSHKVYVQHLLKQDREHLWKLIEGGAHIYVCGDARNMARDVQNTFYDIVAELGAMEHAQAVDYIKKLMTKGRYSLDVWS
With B1, the “μM of reduced MTT/min/mg of protein (Relative Rates)” value in series [1] was 1. Also, the “pmoles of CYP2D6/mg of total protein (Relative Amounts)” value with CYP2D6 came to 1. Besides, the “pmoles of CYP1A2/mg of total protein (Relative Amounts)” value with CYP1A2 is reported as 1.

B2: ΔN1hRD-HDEL: human P450 reductase lacking N-terminal 24 amino acids, with C-terminal yeast ER retention signal HDEL (protein)
chain: MTDMILFSLIVGLLTYWFLFRKKKEEVPEFTKIQTLTSSVRESSFVEKMKKTGRNIIVFYGSQTGTAEEFANRLSKDAHRYGMRGMSADPEEYDLADLSSLPEIDNALVVFCMATYGEGDPTDNAQDFYDWLQETDVDLSGVKFAVFGLGNKTYEHFNAMGKYVDKRLEQLGAQRIFELGLGDDDGNLEEDFITWREQFWPAVCEHFGVEATGEESSIRQYELVVHTDIDAAKVYMGEMGRLKSYENQKPPFDAKNPFLAAVTTNRKLNQGTERHLMHLELDISDSKIRYESGDHVAVYPANDSALVNQLGKILGADLDVVMSLNNLDEESNKKHPFPCPTSYRTALTYYLDITNPPRTNVLYELAQYASEPSEQELLRKMASSSGEGKELYLSWVVEARRHILAILQDCPSLRPPIDHLCELLPRLQARYYSIASSSKVHPNSVHICAVVVEYETKAGRINKGVATNWLRAKEPAGENGGRALVPMFVRKSQFRLPFKATTPVIMVGPGTGVAPFIGFIQERAWLRQQGKEVGETLLYYGCRRSDEDYLYREELAQFHRDGALTQLNVAFSREQSHKVYVQHLLKQDREHLWKLIEGGAHIYVCGDARNMARDVQNTFYDIVAELGAMEHAQAVDYIKKLMTKGRYSLDVWSHDEL
modifications: delN1hRD-HDEL
notes: human P450 reductase lacking N-terminal 24 amino acids, with C-terminal yeast ER retention signal HDEL
As to B2, the “μM of reduced MTT/min/mg of protein (Relative Rates)” value in series [1] amounted to 3 ± 10%. Moreover, the “pmoles of CYP2D6/mg of total protein (Relative Amounts)” value with CYP2D6 is on record as 6 ± 10%. Also, the “pmoles of CYP1A2/mg of total protein (Relative Amounts)” value with CYP1A2 was 6 ± 10%.

B3: ΔN2hRD-HDEL: human P450 reductase lacking the 54-amino acid membrane anchoring region, with C-terminal yeast ER retention signal HDEL (protein)
chain: MTKIQTLTSSVRESSFVEKMKKTGRNIIVFYGSQTGTAEEFANRLSKDAHRYGMRGMSADPEEYDLADLSSLPEIDNALVVFCMATYGEGDPTDNAQDFYDWLQETDVDLSGVKFAVFGLGNKTYEHFNAMGKYVDKRLEQLGAQRIFELGLGDDDGNLEEDFITWREQFWPAVCEHFGVEATGEESSIRQYELVVHTDIDAAKVYMGEMGRLKSYENQKPPFDAKNPFLAAVTTNRKLNQGTERHLMHLELDISDSKIRYESGDHVAVYPANDSALVNQLGKILGADLDVVMSLNNLDEESNKKHPFPCPTSYRTALTYYLDITNPPRTNVLYELAQYASEPSEQELLRKMASSSGEGKELYLSWVVEARRHILAILQDCPSLRPPIDHLCELLPRLQARYYSIASSSKVHPNSVHICAVVVEYETKAGRINKGVATNWLRAKEPAGENGGRALVPMFVRKSQFRLPFKATTPVIMVGPGTGVAPFIGFIQERAWLRQQGKEVGETLLYYGCRRSDEDYLYREELAQFHRDGALTQLNVAFSREQSHKVYVQHLLKQDREHLWKLIEGGAHIYVCGDARNMARDVQNTFYDIVAELGAMEHAQAVDYIKKLMTKGRYSLDVWSHDEL
modifications: delN2hRD-HDEL
notes: human P450 reductase lacking the 54-amino acid membrane anchoring region, with C-terminal yeast ER retention signal HDEL
With B3, in series [1], the “μM of reduced MTT/min/mg of protein (Relative Rates)” value came to 3.5 ± 10%. Moreover, the “pmoles of CYP2D6/mg of total protein (Relative Amounts)” value with CYP2D6 is recorded as 6 ± 10%. Moreover, the “pmoles of CYP1A2/mg of total protein (Relative Amounts)” value in the series with CYP1A2 amounted to 6 ± 10%.

B4: ΔN1hRD-M: human P450 reductase lacking N-terminal 24 amino acids, with C-terminal 12-amino acid c-myc tag; described in WO 2007/129050; gene SEQ ID NO: 5 (protein)
chain: MTDMILFSLIVGLLTYWFLFRKKKEEVPEFTKIQTLTSSVRESSFVEKMKKTGRNIIVFYGSQTGTAEEFANRLSKDAHRYGMRGMSADPEEYDLADLSSLPEIDNALVVFCMATYGEGDPTDNAQDFYDWLQETDVDLSGVKFAVFGLGNKTYEHFNAMGKYVDKRLEQLGAQRIFELGLGDDDGNLEEDFITWREQFWPAVCEHFGVEATGEESSIRQYELVVHTDIDAAKVYMGEMGRLKSYENQKPPFDAKNPFLAAVTTNRKLNQGTERHLMHLELDISDSKIRYESGDHVAVYPANDSALVNQLGKILGADLDVVMSLNNLDEESNKKHPFPCPTSYRTALTYYLDITNPPRTNVLYELAQYASEPSEQELLRKMASSSGEGKELYLSWVVEARRHILAILQDCPSLRPPIDHLCELLPRLQARYYSIASSSKVHPNSVHICAVVVEYETKAGRINKGVATNWLRAKEPAGENGGRALVPMFVRKSQFRLPFKATTPVIMVGPGTGVAPFIGFIQERAWLRQQGKEVGETLLYYGCRRSDEDYLYREELAQFHRDGALTQLNVAFSREQSHKVYVQHLLKQDREHLWKLIEGGAHIYVCGDARNMARDVQNTFYDIVAELGAMEHAQAVDYIKKLMTKGRYSLDVWSSSEQKLISEEDLNGSRL
modifications: delN1hRD-M
Take B4: in series [1], the “μM of reduced MTT/min/mg of protein (Relative Rates)” value is recorded as 2.5 ± 10%. Moreover, in the series with CYP2D6, the “pmoles of CYP2D6/mg of total protein (Relative Amounts)” value turned out to be 4 ± 10%. Also, the “pmoles of CYP1A2/mg of total protein (Relative Amounts)” value with CYP1A2 was found to be 4 ± 10%.
